Data: US20030220482A1, “Novel peptide antagonist of CXCR4 derived from the N-terminus of the viral chemokine vMIP-II” (priority 2000, published 2003)
Like-named read-outs stand apart in the source and are kept apart here.

How the values were obtained:
[1] = biological target: T1, CXCR4 chemokine receptor (human), P61073; experiment: cell-based or functional assay
T1 chain: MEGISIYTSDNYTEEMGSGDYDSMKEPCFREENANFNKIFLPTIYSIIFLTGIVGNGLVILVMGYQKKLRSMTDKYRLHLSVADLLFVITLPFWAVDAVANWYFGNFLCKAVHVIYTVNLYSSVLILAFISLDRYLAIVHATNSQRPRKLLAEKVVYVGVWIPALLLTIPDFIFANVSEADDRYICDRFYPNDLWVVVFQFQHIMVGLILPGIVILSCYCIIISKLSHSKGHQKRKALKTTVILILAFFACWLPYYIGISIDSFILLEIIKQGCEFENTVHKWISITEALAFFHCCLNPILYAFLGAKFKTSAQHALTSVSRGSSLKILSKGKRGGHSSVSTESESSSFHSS

[2] = biological target: T1, CXCR4 chemokine receptor (human), P61073; experiment: anti-CXCR4 mAb 12G5 competitive binding assay
[3] = biological target: T1, CXCR4 chemokine receptor (human), P61073
[4] = biological target: T1, CXCR4 chemokine receptor (human), P61073; experiment: ^125I-SDF-1α competitive binding assay, IC50 against SDF-1
[5] = biological target: T1, CXCR4 chemokine receptor (human), P61073; experiment: anti-CXCR4 mAb 12G5 competitive binding assay, IC50 against SDF-1

B1: V1 peptide (vMIP-II, 1-21) (peptide)
peptide: LGASWHRPDKCCLGYQKRPLP
modifications: not checked
chemotaxis assay, IC50 [1]: 1000 nM
intracellular calcium influx in Sup T1 cells: block of the SDF-1 signal [1]: 200 µM
IC50 [2]: 640 nM
IC50 [3]: 190 nM
fold less potent than SDF-1 [4]: 70 fold
fold less potent than SDF-1 [5]: 33 fold
